From PMC3469540 come the findings set out here.

For the data set, the system named is PSC (Posterior Sex Combs) (Drosophila). In words: centrifugation (array oligomerization). Conditions: 50% of template pelleted; saturates at 2 PSC per nucleosome; not an affinity; Buffer, salt, pH and temperature of the nucleic acid binding assays not given in the material; EMSA on 0.8% agarose, 0.5X TBE after glutaraldehyde …. (In EMSA bound probe runs differently from free probe, usually more slowly.)

As to 12-nucleosome array, the K half (PSC per nucleosome) came to 0.25.
